Laboratory results from the supplement of paper PMC10567573.

B1: SMTNL2 (parent)
chain: AFTMAENLANCERLIEVEDMMVMG
B2: TBC1D10A (parent)
chain: WCLVQICEKYLPGYYSEKLEAIQL

Variants of: B1
Experiment: protein stability index of a GFP-peptide fusion (GPS, HEK-293T) (PSI 1-6); higher = more stable
Conditions: c terminus: a fixed tail appended
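Further: lentivirally expressed fusions sorted by FACS into six bins by GFP to DsRed ratio, PSI derived from sequencing read proportions per bin multiplied by bin number.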

Variant | protein stability index
EFTMAENLANCERLIEVEDMMVMG [A1E] | 2.1
DFTMAENLANCERLIEVEDMMVMG [A1D] | 2.47
FFTMAENLANCERLIEVEDMMVMG [A1F] | 1.86
CFTMAENLANCERLIEVEDMMVMG [A1C] | 1.74
GFTMAENLANCERLIEVEDMMVMG [A1G] | 1.74

Variants of: B2
Experiment: as above
Conditions: c terminus: a fixed tail appended

Variant | protein stability index
WCLVQICEKYLPGYYSEKLEAIRL [Q23R] | 2.52
WCLVQICEKYLPGYYSEKLEAIAL [Q23A] | 4.11
WCLVQICEKYLPGYYSEKLEAIIL [Q23I] | 3.3
WCLVQICEKYLPGYYSEKLEAIWL [Q23W] | 2.58
WCLVQICEKYLPGYYSEKLEAIML [Q23M] | 2.93
WCLVQICEKYLPGYYSEKLEAIKL [Q23K] | 2.75
WCLVQICEKYLPGYYSEKLEAIHL [Q23H] | 2.13
WCLVQICEKYLPGYYSEKLEAISL [Q23S] | 3.29
WCLVQICEKYLPGYYSEKLEAIPL [Q23P] | 1.64
WCLVQICEKYLPGYYSEKLEAINL [Q23N] | 3.14
WCLVQICEKYLPGYYSEKLEAIVL [Q23V] | 2.11
WCLVQICEKYLPGYYSEKLEAIEL [Q23E] | 2.44
WCLVQICEKYLPGYYSEKLEAITL [Q23T] | 5.09
WCLVQICEKYLPGYYSEKLEAIFL [Q23F] | 3.75
WCLVQICEKYLPGYYSEKLEATQL [I22T] | 2.67
WCLVQICEKYLPGYYSEKLEALQL [I22L] | 4.01
WCLVQICEKYLPGYYSEKLEAMQL [I22M] | 2.21
WCLVQICEKYLPGYYSEKLEAKQL [I22K] | 2.86
WCLVQICEKYLPGYYSEKLEAQQL [I22Q] | 2.4
WCLVQICEKYLPGYYSEKLEANQL [I22N] | 1.3
WCLVQICEKYLPGYYSEKLEAVQL [I22V] | 3.09

Variant | protein stability index
WCLVQICEKYLPGYYSEKLEAGQL [I22G] | 2.35
WCLVQICEKYLPGYYSEKLEADQL [I22D] | 3.23
WCLVQICEKYLPGYYSEKLEAEQL [I22E] | 3.23
WCLVQICEKYLPGYYSEKLEASQL [I22S] | 1.72
WCLVQICEKYLPAYYSEKLEAIQL [G13A] | 3.16
WCLVQICEKYLPKYYSEKLEAIQL [G13K] | 2.91
WCLVQICEKYLPSYYSEKLEAIQL [G13S] | 2.02
WCLVQICEKYLPMYYSEKLEAIQL [G13M] | 3.53
WCLVQICEKYLPWYYSEKLEAIQL [G13W] | 2.7
WCLVQICEKYLPIYYSEKLEAIQL [G13I] | 1.54
WCLVQICEKYLPYYYSEKLEAIQL [G13Y] | 5.24
WCLVQICEKYLPCYYSEKLEAIQL [G13C] | 1.5
WCLVQICEKYLPEYYSEKLEAIQL [G13E] | 3.01
WCLVQICEPYLPGYYSEKLEAIQL [K9P] | 2.17
WCLVQICEHYLPGYYSEKLEAIQL [K9H] | 2.65
WCLVQICETYLPGYYSEKLEAIQL [K9T] | 3.21
WCLVQICEIYLPGYYSEKLEAIQL [K9I] | 3.29
WCLVQICEFYLPGYYSEKLEAIQL [K9F] | 3.33
WCLVQICEAYLPGYYSEKLEAIQL [K9A] | 1.11
WCLVQICECYLPGYYSEKLEAIQL [K9C] | 4.4
WCLVQICYKYLPGYYSEKLEAIQL [E8Y] | 3.51
